Measured values from patent publication US20170129921A1.

Target: Human C5a receptor 2 (human) (UniProt Q9P296)
Experiment: 125I-C5a displacement, SPA on Flp-In CHO-C5a2 membranes

Sequence of Human C5a receptor 2 (human) (Q9P296 whole entry): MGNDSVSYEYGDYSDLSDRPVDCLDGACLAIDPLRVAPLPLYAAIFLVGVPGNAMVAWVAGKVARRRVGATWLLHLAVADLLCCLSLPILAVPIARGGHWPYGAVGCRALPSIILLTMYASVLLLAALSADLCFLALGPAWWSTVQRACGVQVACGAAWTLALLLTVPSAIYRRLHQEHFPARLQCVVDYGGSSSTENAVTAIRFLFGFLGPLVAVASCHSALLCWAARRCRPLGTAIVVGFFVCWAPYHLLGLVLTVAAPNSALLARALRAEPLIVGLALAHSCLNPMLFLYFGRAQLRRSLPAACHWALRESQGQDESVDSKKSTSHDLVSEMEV
Sequence of Human isolated C3a-des Arg, P01024 672-747 (ligand; other documents disagree on this pair) (P01024 672-747 limits assumed): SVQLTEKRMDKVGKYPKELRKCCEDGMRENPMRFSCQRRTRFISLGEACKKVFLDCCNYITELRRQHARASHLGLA
Sequence of Human isolated C3a, P01024 672-748 (ligand; other documents disagree on this pair) (P01024 672-748): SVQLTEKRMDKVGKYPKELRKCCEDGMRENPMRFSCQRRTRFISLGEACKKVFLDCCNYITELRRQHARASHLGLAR

Ki [nM]	Substance
> 1000	Human isolated C3a-des Arg, P01024 672-747 (ligand; other documents disagree on this pair)
> 1000	Human isolated C3a, P01024 672-748 (ligand; other documents disagree on this pair)
